Test results taken from paper PMC11844729 (Science Advances, 2025).

Target: T1, mN2G^SR (mini-nesprin-2G lacking the transmembrane KASH domain, with C-terminal sfGFP-6xHis) (mouse, UniProt Q6ZWQ0-1)
T1 chain: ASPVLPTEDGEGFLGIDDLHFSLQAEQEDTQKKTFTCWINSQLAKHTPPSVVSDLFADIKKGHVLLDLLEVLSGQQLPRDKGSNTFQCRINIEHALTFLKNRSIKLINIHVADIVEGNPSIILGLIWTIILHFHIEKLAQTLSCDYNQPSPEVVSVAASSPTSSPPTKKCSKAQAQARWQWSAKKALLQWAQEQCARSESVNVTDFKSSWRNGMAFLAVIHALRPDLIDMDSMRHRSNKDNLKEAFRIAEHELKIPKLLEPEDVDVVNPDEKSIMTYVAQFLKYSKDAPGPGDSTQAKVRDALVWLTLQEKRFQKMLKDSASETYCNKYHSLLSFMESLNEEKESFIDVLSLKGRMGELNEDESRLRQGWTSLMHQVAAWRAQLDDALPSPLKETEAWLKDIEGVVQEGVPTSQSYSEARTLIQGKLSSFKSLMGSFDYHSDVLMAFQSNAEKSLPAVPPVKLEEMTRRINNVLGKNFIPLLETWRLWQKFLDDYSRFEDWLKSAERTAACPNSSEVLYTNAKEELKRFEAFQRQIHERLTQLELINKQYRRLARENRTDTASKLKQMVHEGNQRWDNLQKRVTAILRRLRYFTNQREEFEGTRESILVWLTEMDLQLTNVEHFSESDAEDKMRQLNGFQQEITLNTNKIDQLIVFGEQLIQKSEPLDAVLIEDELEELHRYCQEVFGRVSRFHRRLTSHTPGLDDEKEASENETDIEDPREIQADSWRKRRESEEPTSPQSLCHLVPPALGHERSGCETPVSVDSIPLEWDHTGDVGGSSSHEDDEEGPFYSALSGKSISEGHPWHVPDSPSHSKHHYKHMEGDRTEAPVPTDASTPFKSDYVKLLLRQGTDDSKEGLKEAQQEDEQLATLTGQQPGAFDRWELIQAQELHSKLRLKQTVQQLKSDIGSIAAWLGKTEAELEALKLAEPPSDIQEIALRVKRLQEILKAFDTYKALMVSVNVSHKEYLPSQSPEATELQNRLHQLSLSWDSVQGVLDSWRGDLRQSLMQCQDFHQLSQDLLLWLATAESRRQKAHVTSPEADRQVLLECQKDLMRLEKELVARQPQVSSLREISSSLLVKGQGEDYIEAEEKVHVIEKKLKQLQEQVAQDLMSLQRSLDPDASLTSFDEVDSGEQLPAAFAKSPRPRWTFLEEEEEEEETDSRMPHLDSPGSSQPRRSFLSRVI
Assay: TIRF microscopy

B1: kinesin heterotetramer composed of the KIF5B KHC and KLC2 (K5B2) (complex)
chain 1: MADLAECNIKVMCRFRPLNESEVNRGDKYIAKFQGEDTVVIASKPYAFDRVFQSSTSQEQVYNDCAKKIVKDVLEGYNGTIFAYGQTSSGKTHTMEGKLHDPEGMGIIPRIVQDIFNYIYSMDENLEFHIKVSYFEIYLDKIRDLLDVSKTNLSVHEDKNRVPYVKGCTERFVCSPDEVMDTIDEGKSNRHVAVTNMNEHSSRSHSIFLINVKQENTQTEQKLSGKLYLVDLAGSEKVSKTGAEGAVLDEAKNINKSLSALGNVISALAEGSTYVPYRDSKMTRILQDSLGGNCRTTIVICCSPSSYNESETKSTLLFGQRAKTIKNTVCVNVELTAEQWKKKYEKEKEKNKILRNTIQWLENELNRWRNGETVPIDEQFDKEKANLEAFTVDKDITLTNDKPATAIGVIGNFTDAERRKCEEEIAKLYKQLDDKDEEINQQSQLVEKLKTQMLDQEELLASTRRDQDNMQAELNRLQAENDASKEEVKEVLQALEELAVNYDQKSQEVEDKTKEYELLSDELNQKSATLASIDAELQKLKEMTNHQKKRAAEMMASLLKDLAEIGIAVGNNDVKQPEGTGMIDEEFTVARLYISKMKSEVKTMVKRCKQLESTQTESNKKMEENEKELAACQLRISQHEAKIKSLTEYLQNVEQKKRQLEESVDALSEELVQLRAQEKVHEMEKEHLNKVQTANEVKQAVEQQIQSHRETHQKQISSLRDEVEAKAKLITDLQDQNQKMMLEQERLRVEHEKLKATDQEKSRKLHELTVMQDRREQARQDLKGLEETVAKELQTLHNLRKLFVQDLATRVKKSAEIDSDDTGGSAAQKQKISFLENNLEQLTKVHKQLVRDNADLRCELPKLEKRLRATAERVKALESALKEAKENASRDRKRYQQEVDRIKEAVRSKNMARRGHSAQIAKPIRPGQHPAASPTHPSAIRGGGAFVQNSQPVAVRGGGGKQV
chain 2: MAMMVFPREEKLSQDEIVLGTKAVIQGLETLRGEHRALLAPLVAPEAGEAEPGSQERCILLRRSLEAIELGLGEAQVILALSSHLGAVESEKQKLRAQVRRLVQENQWLREELAGTQQKLQRSEQAVAQLEEEKQHLLFMSQIRKLDEDASPNEEKGDVPKDTLDDLFPNEDEQSPAPSPGGGDVSGQHGGYEIPARLRTLHNLVIQYASQGRYEVAVPLCKQALEDLEKTSGHDHPDVATMLNILALVYRDQNKYKEAAHLLNDALAIREKTLGKDHPAVAATLNNLAVLYGKRGKYKEAEPLCKRALEIREKVLGKFHPDVAKQLSNLALLCQNQGKAEEVEYYYRRALEIYATRLGPDDPNVAKTKNNLASCYLKQGKYQDAETLYKEILTRAHEKEFGSVNGDNKPIWMHAEEREESKDKRRDSAPYGEYGSWYKACKVDSPTVNTTLRSLGALYRRQGKLEAAHTLEDCASRNRKQGLDPASQTKVVELLKDGSGRRGDRRSSRDMAGGAGPRSESDLEDVGPTAEWNGDGSGSLRRSGSFGKLRDALRRSSEMLVKKLQGGTPQEPPNPRMKRASSLNFLNKSVEEPTQPGGTGLSDSRTLSSSSMDLSRRSSLVG
  fold recruitment to F-actin against mN2G^CH: > 115 fold
